Literature values as cited in patent publication US5591427A, “Human Interleukin-3(Il-3) variants and their use to promote or antagonize IL-3-mediated processes” (Medvet Science Pty. Ltd., priority 1979, dated 1997).

What was measured:
[1] = system: M-07 cell line; settings: E. coli expressed variants, literature; cited from earlier work
[2] = molecular target: T1, IL-3 receptor (Homo sapiens, UniProt P26951+P32927); settings: E. coli expressed variants, literature; cited from earlier work
T1 sequence (P26951 19-378): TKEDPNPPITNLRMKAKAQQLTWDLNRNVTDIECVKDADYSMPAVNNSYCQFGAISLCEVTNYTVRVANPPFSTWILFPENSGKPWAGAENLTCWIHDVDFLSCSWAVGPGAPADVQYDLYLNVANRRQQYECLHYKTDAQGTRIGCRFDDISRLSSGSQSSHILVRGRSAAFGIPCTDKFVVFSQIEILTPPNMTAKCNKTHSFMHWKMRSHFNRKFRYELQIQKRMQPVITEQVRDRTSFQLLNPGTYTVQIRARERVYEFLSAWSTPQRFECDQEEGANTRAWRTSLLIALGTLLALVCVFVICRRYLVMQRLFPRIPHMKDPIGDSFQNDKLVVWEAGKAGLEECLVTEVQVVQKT
T1 sequence (P32927 17-897): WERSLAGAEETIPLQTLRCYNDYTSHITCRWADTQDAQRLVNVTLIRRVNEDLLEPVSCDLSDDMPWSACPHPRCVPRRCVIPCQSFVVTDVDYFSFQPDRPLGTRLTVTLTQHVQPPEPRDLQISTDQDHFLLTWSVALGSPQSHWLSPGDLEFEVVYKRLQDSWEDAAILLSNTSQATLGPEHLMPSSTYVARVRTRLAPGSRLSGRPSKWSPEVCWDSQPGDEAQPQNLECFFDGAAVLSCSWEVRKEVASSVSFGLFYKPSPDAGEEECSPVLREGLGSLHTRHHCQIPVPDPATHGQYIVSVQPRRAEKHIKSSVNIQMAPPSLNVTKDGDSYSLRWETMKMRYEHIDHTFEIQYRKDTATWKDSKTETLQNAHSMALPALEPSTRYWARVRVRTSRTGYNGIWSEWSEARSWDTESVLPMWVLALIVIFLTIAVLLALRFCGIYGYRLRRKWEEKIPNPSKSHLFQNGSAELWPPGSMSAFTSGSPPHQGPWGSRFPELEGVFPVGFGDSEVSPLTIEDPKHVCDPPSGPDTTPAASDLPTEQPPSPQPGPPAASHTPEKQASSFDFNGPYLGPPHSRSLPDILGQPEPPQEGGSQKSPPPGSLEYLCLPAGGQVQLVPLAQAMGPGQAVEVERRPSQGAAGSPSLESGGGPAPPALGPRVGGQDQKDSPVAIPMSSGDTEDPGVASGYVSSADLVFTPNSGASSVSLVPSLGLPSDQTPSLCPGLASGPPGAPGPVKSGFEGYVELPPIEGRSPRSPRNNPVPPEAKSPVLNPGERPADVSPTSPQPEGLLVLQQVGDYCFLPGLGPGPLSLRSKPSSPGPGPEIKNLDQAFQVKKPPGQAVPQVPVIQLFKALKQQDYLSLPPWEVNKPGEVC

B1: Gly 33: literature hIL-3 variant in which Pro 33 was substituted with Gly (Lokker et al, 1991a) (protein, UniProt P08700 20-152, looked up, variant P33G)
Interleukin-3: APMTQTTPLKTSWVNCSNMIDEIITHLKQPPLGLLDFNNLNGEDQDILMENNLRRPNLEAFNRAVKSLQNASAIESILKNLLPCLPLATAAPTRHPIHIKDGDWNEFRRKLTFYLKTLENAQAQQTTLSLAIF
In the case of B1, the “proliferation activity, M-07 cells” value [1] is listed as “enhanced proliferation activity” and the “receptor binding capacity” value [2] is listed as “without a significant modification”.
